Assay results taken from doi:10.1101/2025.03.14.642698.
Each block holds one binder with its values, some of them ahead of it.

Key:
[1] = target: Ldb16 (1-133 6A)-FLAG, genomically expressed (S. cerevisiae) (UniProt P25587); experiment: co-IP
[2] = target: Ldb16 (1-133 ΔH)-FLAG, genomically expressed (S. cerevisiae) (UniProt P25587); experiment: co-IP

Ldo co-immunoprecipitation compared to Ldb16 1-133 (% lower than 1-133) [1]: 50 | Ldo co-immunoprecipitation compared to Ldb16 1-133 (% lower than 1-133) [2]: 50
B1: Ldo45-HA, endogenously tagged (natural protein)
chain: MAARNRRKNNKKKSLLVTSAAQEKNATYVLVAEELHKKTIDLNMGTETPLTENHENPIPAKEFKHQQKLEPIDEHDDGEDELSIKFKSMTKSSGPITEAEVQKLLLSYAFTSAAIQEDENEKESRHYPIKPPSPSASSLSAYFQSFVEKCKQVFYNFSLQTVEKLNALQNSLYEVFWIIFIYLNYWFPNVGDYVSNTFGQQDSIIIRISLSKSHFRALREKSSQKVQQAVKNIYFCFQEKPYLTAFKVSFAIGLVIPCSLLFLIMVSTATFFFFVYLTLFVVIGFFSSLFIIPLLGISFVFAIGVVSFGFCSNMSFKMAQLIYVRADAFLKKVLDKMALQTQPAQLQEPQEPLSTLRPVSNPTIPSPLRQTARPSKFVTEEDVIFEPVSAQSAIARSLETTANKAGNKFQLS

Ldo co-immunoprecipitation compared to Ldb16 1-133 (% lower than 1-133) [1]: 50 | Ldo co-immunoprecipitation compared to Ldb16 1-133 (% lower than 1-133) [2]: 50
B2: Ldo16-HA, endogenously tagged (natural protein)
chain: MVSTATFFFFVYLTLFVVIGFFSSLFIIPLLGISFVFAIGVVSFGFCSNMSFKMAQLIYVRADAFLKKVLDKMALQTQPAQLQEPQEPLSTLRPVSNPTIPSPLRQTARPSKFVTEEDVIFEPVSAQSAIARSLETTANKAGNKFQLS
